Test results published in patent US20250019450A1 (DIAGONAL THERAPEUTICS, published 2025).

T1: human IL-12RB2 with C-terminal HA tag, transiently expressed on HEK-293T cells (human, UniProt Q99665 24-862)
T1 construct: whole, on cells; also called human IL-12Rβ2
T1 sequence (looked up): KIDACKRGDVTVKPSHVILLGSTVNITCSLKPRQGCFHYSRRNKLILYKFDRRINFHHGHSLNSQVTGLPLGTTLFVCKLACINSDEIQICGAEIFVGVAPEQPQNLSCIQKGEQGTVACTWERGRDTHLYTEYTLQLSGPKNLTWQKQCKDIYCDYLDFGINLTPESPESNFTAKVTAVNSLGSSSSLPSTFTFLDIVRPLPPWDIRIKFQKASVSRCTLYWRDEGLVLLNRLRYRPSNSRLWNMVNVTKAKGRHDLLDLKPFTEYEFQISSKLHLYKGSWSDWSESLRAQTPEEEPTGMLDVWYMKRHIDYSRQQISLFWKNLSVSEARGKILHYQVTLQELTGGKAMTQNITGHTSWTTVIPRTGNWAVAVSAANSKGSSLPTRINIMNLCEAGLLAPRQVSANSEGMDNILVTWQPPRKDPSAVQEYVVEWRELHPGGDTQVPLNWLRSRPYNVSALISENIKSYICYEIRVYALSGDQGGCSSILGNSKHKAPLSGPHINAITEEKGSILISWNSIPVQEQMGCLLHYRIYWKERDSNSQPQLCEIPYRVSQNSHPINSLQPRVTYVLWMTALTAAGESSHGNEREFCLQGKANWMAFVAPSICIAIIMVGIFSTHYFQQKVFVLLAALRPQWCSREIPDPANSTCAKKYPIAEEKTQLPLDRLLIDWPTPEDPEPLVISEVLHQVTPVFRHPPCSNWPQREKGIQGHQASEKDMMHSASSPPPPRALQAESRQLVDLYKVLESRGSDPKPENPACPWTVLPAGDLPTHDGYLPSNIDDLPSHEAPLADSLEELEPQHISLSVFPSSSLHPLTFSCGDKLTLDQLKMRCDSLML

T2: cyno IL-12RB2 with C-terminal HA tag, transiently expressed on HEK-293T cells (cyno, UniProt A0A2K5VNI7 24-860)
T2 construct: whole, on cells; also called cyno IL-12Rβ2
T2 sequence: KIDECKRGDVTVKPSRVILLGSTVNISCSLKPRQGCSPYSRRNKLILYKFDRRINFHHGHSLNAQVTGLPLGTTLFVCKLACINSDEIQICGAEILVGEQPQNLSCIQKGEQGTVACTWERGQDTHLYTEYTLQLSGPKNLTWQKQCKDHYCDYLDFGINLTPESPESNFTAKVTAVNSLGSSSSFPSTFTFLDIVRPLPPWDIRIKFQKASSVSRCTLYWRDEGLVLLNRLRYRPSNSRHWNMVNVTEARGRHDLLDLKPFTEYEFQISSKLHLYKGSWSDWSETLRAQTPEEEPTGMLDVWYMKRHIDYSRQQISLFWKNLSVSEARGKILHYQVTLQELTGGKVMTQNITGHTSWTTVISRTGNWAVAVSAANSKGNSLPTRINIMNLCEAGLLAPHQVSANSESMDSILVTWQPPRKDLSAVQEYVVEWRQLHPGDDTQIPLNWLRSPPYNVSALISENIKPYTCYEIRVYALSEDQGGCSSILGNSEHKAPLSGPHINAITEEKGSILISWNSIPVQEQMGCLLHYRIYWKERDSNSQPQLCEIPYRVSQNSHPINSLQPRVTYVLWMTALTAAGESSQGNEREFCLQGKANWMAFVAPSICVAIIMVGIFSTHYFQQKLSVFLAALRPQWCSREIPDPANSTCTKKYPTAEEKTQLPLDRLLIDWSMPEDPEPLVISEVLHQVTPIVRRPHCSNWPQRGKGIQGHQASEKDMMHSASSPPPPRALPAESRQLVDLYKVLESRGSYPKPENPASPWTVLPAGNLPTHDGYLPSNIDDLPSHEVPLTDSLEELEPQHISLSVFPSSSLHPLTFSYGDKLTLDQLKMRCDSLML


What was measured:
[1] = molecular target: T1, human IL-12RB2 with C-terminal HA tag, …; assay: FACS, periplasmic extract, HEK-293T
[2] = molecular target: T2, cyno IL-12RB2 with C-terminal HA tag, …; assay: FACS, periplasmic extract, HEK-293T
[3] = molecular target: T3, human IL-12RB1 with C-terminal FLAG tag, transiently expressed on HEK-293T cells (human, UniProt P42701 24-662); assay: FACS, periplasmic extract, HEK-293T
T3 construct: whole, on cells

[4] = molecular target: T4, cyno IL-12RB1 with C-terminal FLAG tag, transiently expressed on HEK-293T cells (cyno, UniProt A0A2K5VWV1 24-662); assay: FACS, periplasmic extract, HEK-293T
T4 construct: whole, on cells

[5] = molecular target: T5, human IL-12Rβ1-his (Acro Biosystems), biotinylated (human, UniProt P42701 24-545, biotinylated); assay: ELISA, periplasmic extract
T5 construct: bought; captured on Neutravidin in the ELISA; also called Bio-huIL-12Rβ1-His

[6] = molecular target: T6, human IL-12RB1 overexpressed on 293T cells (Example 2) (human, UniProt P42701 24-662); assay: FACS, hybridoma supernatant, 293T
T6 construct: whole, on cells

[7] = molecular target: T7, cyno IL-12RB1 overexpressed on 293T cells (Example 2) (cyno, UniProt A0A2K5VWV1 24-662); assay: FACS, hybridoma supernatant, 293T
T7 construct: whole, on cells

[8] = molecular target: human IL-12Rβ1, Acro (BLI analyte) (human, UniProt P42701 24-545); assay: BLI (Octet), antibody on AHC tip
[9] = molecular target: human IL-12 receptor (IL-12Rβ1 and IL-12Rβ2) on HEK-Blue IL-12 cells (human, UniProt P42701 24-662; Q99665 24-862); assay: cell-based or functional assay

Binder | FOB [2] [fold] | FOB [3] [fold] | FOB [4] [fold] | OD450 nm [5] | also measured
VHH211B2 (VHH) VHH: QVQLVESGGGLVQAGNSLRLSCAASGRTFSSYVVGWFRQAPGKEREFVGRISWSGARTYYADSVKGRFTISRDNAKNTVYLQMNSLKPEDTAVYYCAADLKWEVLLSEHFEYWGQGTQVTVSS | 0.99 | – | – | – | FOB [1]: 1.64 fold
VHH241B2 (VHH) VHH: QVQLVESGGGLVQLGDSLRLSCAASGRGFSSWTMAWFRQALGKRREFVAAITATGARTCSAESEGRFTISRDNAKNMVFLQMNSLKAEDTAVYYCAATGIASWDPGMADKYTYWGQGTQVTVSS | 2.37 | – | – | – | –
VHH258B1 (VHH) VHH: QVQLVESGGGLVQAGGSLRLSCAASGRTFSSYVMGWFRQAPGQEREFVAAIMRNGIMTYYADSVKGRFTISRDNAKNTVYLQMNTLKPDDTAVYYCAAASRVGVSISQSSSYTSWGQGTQVTVSS | – | 183 | 91 | 3.3 | –
85801_04G19 (antibody, V domains shown, also called 85801_04G19A) VH: QVQLQESGPGLVKPSETLSLTCTVSGGSISSYYWSWIRQSAGKELEWIGRIYTSGSTIYNPSLKSRVTMSVDPSKNQFSLKLSSVTAADTAVYYCANSRSYPHDAFDIWGQGTMVTVSS VL: DIQLTQSPSFLSASVGYRVTITCRASQGISSYLAWYQQKPGKAPQLLIYAASTLQSGVPSRFSGRGSGTEFTLTISSLQPEDFATYYCQQLNGYPFTFGPGTKVNIK | – | – | – | – | Fold over parental 293T [6]: 262 fold; Fold over parental 293T [7]: 116 fold
85801_10K15 (antibody, V domains shown, also called 85801_10K15A) VH: QITLKESGPTLVKPTQTLTLTCTFFGFSLNTGGVGVGWIRQPPGKALEWLTLIYWNDDKRYSPSLKSRLTITKDTSKNQVVLTMTNMDPVDTATYYCAHTLRWYHGFDIWGQGTMVTVSS VL: QTVVTQEPSFSVSPGGTVTLTCGLTSGSVSTSYYPSWYQQTPGQAPRTLIYSTYTRSSGVPDRFSGSILGNKAALTITGAQADDESDYYCVLYMGSGIWVFGGGTKLTVL | – | – | – | – | Fold over parental 293T [6]: 57 fold; Fold over parental 293T [7]: 21 fold
DGL421 (bispecific antibody, human IgG1, lambda, 85801_10K15A x 190B2) heavy 1: not shown heavy 2: QVQLQESGPGLVKPSQTLSLTCTVSGGSITTNYYYWSWIRQPPGKGLEWMGAIAYSGSTYYSPSLKSRTSISRDTSKNQFTLQLSSVTPEDTAVYYCASGINFYSNYPTLNEYDYWGQGTQVTVEPKSSDKTHTCPPCPAPEAAGAPSVFLFPPKPKDTLMISRTPEVTCVVVDVSHEDPEVKFNWYVDGVEVHNAKTKPREEQYNSTYRVVSVLTVLHQDWLNGKEYKCKVSNKALPAPIEKTISKAKGQPREPQVCTLPPSRDELTKNQVSLSCAVKGFYPSDIAVEWESNGQPENNYKTTPPVLDSDGSFFLVSKLTVDKSRWQQGNVFSCSVMHEALHNRFTQKSLSLSPG light: QTVVTQEPSFSVSPGGTVTLTCGLTSGSVSTSYYPSWYQQTPGQAPRTLIYSTYTRSSGVPDRFSGSILGNKAALTITGAQADDESDYYCVLYMGSGIWVFGGGTKLTVLGQPKAAPSVTLFPPSSEELQANKATLVCLISDFYPGAVTVAWKADSSPVKAGVETTTPSKQSNNKYAASSYLSLTPEQWKSHRSYSCQVTHEGSTVEKTVAPTECS | – | – | – | – | Kd [8]: 6.06 nM; EC50 [9]: 1.1e-09 M (implied); Max Absorbance [9]: 0.9
VHH229B2 (VHH) VHH: QVQLVESGGGLVQAGGSLRLSCAASGRTFSSYAMGWFRQAPGKEREFVSAISWNGGSRYYVESVEGRFTISRDNAKNTVYLQMNSLKPEDTAVYYCAASRIYTNYVARSYEYDDWGQGTQVTVSS | 1 | – | – | – | FOB [1]: 1.42 fold
VHH216B2 (VHH) VHH: QVQLVESGGGLVQPGGSLRLSCATSEHTFGTYRMGWFRQAPGKEREFVAGISWTGQTTYYAASVKGRFAISKDNAKNTVYLQMNTLKSDDTAVYYCAVETNNLGRWDRPSEYDYWGQGTQVTVSS | 0.98 | – | – | – | –

Second part, led by results:

FOB [2] [fold] | FOB [3] [fold] | FOB [4] [fold] | OD450 nm [5] | Binder | also measured
1.55 | – | – | – | VHH277B2 (VHH) VHH: QVQLVESGGGLVQLGDSLRLSCAASGRGFSSWTMAWFRQALGKRREFVAAITATGARTCSAESEGRFTISRDNAKNMVFLQMNSLKAEDTAVYYCAATEIAGWDPGMGDKYPYWGQGTQVTVSS | FOB [1]: 1.21 fold
– | 119 | 93 | 1.06 | VHH321B1 (VHH) VHH: QVQLVESGGGLVQPGGSLRLSCIASGFTFSDYAMKWVRRPPGKGLEWVSVIDSEGPTIKYSDAVRGRFTISRDNAKNTLYLQMNSLKPEDTAVYYCAKSNGGSAFSSVLYTDRGQGTQVTVSS | –
– | 105 | 89 | 0.144 | VHH263B1 (VHH) VHH: EVQLVESGGGLVQAGGSLRLSCAASGSKFSFNAMGWYRQTPGKQRELVAIIINGDMINYADSVKGRFTISRDNAKNTMYLQMNSLKPEDTAVYYCKMTRYVYDYWGQGTQVTVSS | –
– | 31 | 24 | 3.2 | VHH276B1 (VHH) VHH: QVQLVESGGGLVQAGASLRLSCAASGRTFSSYAMGWFRQAPGKEREFVAAISGGTPNNIYYTNYKDAVRGRFTISRDNAKNTVYLQMSSLKPEDTAVYYCGATMGRYWNTGGYDYWGQGTQVTVSS | –
